Reference: article PMC4266533, “Kinetics of the early events of GPCR signalling” (Febs Letters, 2014)

Legend:
[1] = biological target: T1, FLAG-NTS1 (neurotensin receptor type 1) reconstituted into PC:PG nanodiscs, neurotensin-bound (UniProt P20789 1-424); assay: SPR; Gα amine-coupled to a CM5 chip (Biacore T100/T200); NT-bound (5 uM NT) anti-FLAG-enriched FLAG-NTS1-PC:PG nanodiscs as analyte, serially diluted from 660 nM or 400 nM; single cycle kinetics at 30-50 ul/min; empty nanodiscs as reference, double-referenced; 50 mM Tris-HCl pH 7.4, 100 mM NaCl, 5 mM MgCl2; heterogeneous ligand binding global fit; settings: both partners purified
T1 construct: Neurotensin (NT), 13 amino acid peptide, agonist kept in excess (5 uM) with the receptor; The receptor stood in ~10 nm lipid nanodiscs with the belt protein MSP1D1 (Addgene plasmid 20061, made in E. coli BL21(DE3)); MSP1D1 is not written as a chain; Primarily one receptor per disc (50:1 MSP1D1:FLAG-NTS1); also called FLAG-NTS1-PC:PG nanodiscs; NTS1-nanodiscs

[2] = biological target: T1, FLAG-NTS1 (neurotensin receptor type 1) …; assay: SPR; FLAG-NTS1-PC:PG nanodiscs (2500 RU) captured on an L1 chip, empty PC:PG nanodiscs (2000 RU) in the reference cell; His6-Gs as analyte, 62.5-1000 nM, 150 s per concentration at 50 ul/min; 1:1 Langmuir and heterogeneous ligand binding fits; settings: both partners purified

T1 sequence (P20789 whole entry): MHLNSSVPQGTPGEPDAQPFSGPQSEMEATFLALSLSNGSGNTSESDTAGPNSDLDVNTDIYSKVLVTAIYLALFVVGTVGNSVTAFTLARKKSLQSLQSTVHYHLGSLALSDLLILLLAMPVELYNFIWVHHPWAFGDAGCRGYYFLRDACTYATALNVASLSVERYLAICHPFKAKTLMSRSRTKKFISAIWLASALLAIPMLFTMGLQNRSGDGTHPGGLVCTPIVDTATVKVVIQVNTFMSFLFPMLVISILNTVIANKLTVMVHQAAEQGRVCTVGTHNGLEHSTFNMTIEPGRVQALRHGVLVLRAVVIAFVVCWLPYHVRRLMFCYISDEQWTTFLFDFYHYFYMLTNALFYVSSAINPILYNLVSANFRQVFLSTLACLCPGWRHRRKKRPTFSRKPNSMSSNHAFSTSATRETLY

- Kd [1]: 9 nM
- Kd [2]: 65 nM
B1: His6-Gαs (alpha subunit of the stimulatory G protein Gs) (natural protein, UniProt P63092 1-394, looked up)
chain: MGCLGNSKTEDQRNEEKAQREANKKIEKQLQKDKQVYRATHRLLLLGAGESGKSTIVKQMRILHVNGFNGEGGEEDPQAARSNSDGEKATKVQDIKNNLKEAIETIVAAMSNLVPPVELANPENQFRVDYILSVMNVPDFDFPPEFYEHAKALWEDEGVRACYERSNEYQLIDCAQYFLDKIDVIKQADYVPSDQDLLRCRVLTSGIFETKFQVDKVNFHMFDVGGQRDERRKWIQCFNDVTAIIFVVASSSYNMVIREDNQTNRLQEALNLFKSIWNNRWLRTISVILFLNKQDLLAEKVLAGKSKIEDYFPEFARYTTPEDATPEPGEDPRVTRAKYFIRDEFLRISTASGDGRHYCYPHFTCAVDTENIRRVFNDCRDIIQRMHLRQYELL
notes: Alpha subunit of Gs; construct donated by Renaud Wagner (University of Strasbourg); Also tested with GTPγS (same protein, assay a2); also called His6-Gs; His-Gαs
